First the molecules themselves.
B1: TCRCD8-mC16#8 (TCR, V domains shown)
Valpha: AQKVTQTQTSISVVEKTTVTMDCVYETRDSSYFLFWYKQTASGEIVFLIRQDSYKKENATVGHYSLNFQKPKSSIGLIITATQIEDSAVYFCAMREAANSGTYQRFGTGTKLQVVP
Vbeta: DPKIIQKPKYLVAVTGSEKILICEQYLGHNAMYWYRQSAKKPLEFMFSYSYQKLMDNQTASSRFQPQSSKKNHLDLQITALKPDDSATYFCASSQQNSGNTLYFGEGSRLIVV
B2: TCRCD8-mC16#2 (TCR, V domains shown)
Valpha: GDSVTQTEGQVTVSESKSLIINCTYSATSIGYPNLFWYVRYPGEGLQLLLKVITAGQKGSSRGFEATYNKEATSFHLQKASVQESDSAVYYCALNNQGKLIFGQGTKLSIKP
Vbeta: EAAVTQSPRNKVAVTGGKVTLSCNQTNNHNNMYWYRQDTGHGLRLIHYSYGAGSTEKGDIPDGYKASRPSQENFSLILELATPSQTSVYFCASGGDSQNTLYFGAGTRLSVL
B3: TCRCD8-mC16#12 (TCR, V domains shown)
Valpha: GEQVEQRPPHLSVREGDSAVITCTYTDPNSYYFFWYKQEPGASLQLLMKVFSSTEINEGQGFTVLLNKKDKRLSLNLTAAHPGDSAAYFCAVESSSFSKLVFGQGTSLSVVP
Vbeta: NSKVIQTPRYLVKGQGQKAKMRCIPEKGHPVVFWYQQNKNNEFKFLINFQNQEVLQQIDMTEKRFSAECPSNSPCSLEIQSSEAGDSALYLCASSLTGGAQDTQYFGPGTRLLVL
B4: TCRCD8-mC16#1 (TCR, V domains shown)
Valpha: AQSVTQPDARVTVSEGASLQLRCKYSYFGTPYLFWYVQYPRQGLQLLLKYYPGDPVVQGVNGFEAEFSKSNSSFHLRKASVHWSDWAVYFCAVSMSSGTYQRFGTGTKLQVVP
Vbeta: DMKVTQMPRYLIKRMGENVLLECGQDMSHETMYWYRQDPGLGLQLIYISYDVDSNSEGDIPKGYRVSRKKREHFSLILDSAKTNQTSVYFCASSSQNQDTQYFGPGTRLLVL
B5: TCRCD8-mC16#14 (TCR, V domains shown)
Valpha: GDQVEQSPSALSLHEGTGSALRCNFTTTMRAVQWFRKNSRGSLINLFYLASGTKENGRLKSAFDSKERYSTLHIRDAQLEDSGTYFCAAEGGGNYKPTFGKGTSLVVHP
Vbeta: AQTIHQWPVAEIKAVGSPLSLGCTIKGKSSPNLYWYWQATGGTLQQLFYSITVGQVESVVQLNLSASRPKDDQFILSTEKLLLSHSGFYLCAWSPPINTEVFFGKGTRLTVV
B6: TCRCD8-mC16#18 (TCR, V domains shown)
Valpha: GDSVTQTEGPVTVSESESLIINCTYSATSIAYPNLFWYVRYPGEGLQLLLKVITAGQKGSSRGFEATYNKETTSFHLQKASVQESDSAVYYCALGETGSFNKLTFGAGTRLAVCP
Vbeta: NSKVIQTPRYLVKGQGQKAKMRCIPEKGHPVVFWYQQNKNNEFKFLINFQNQEVLQQIDMTEKRFSAECPSNSPCSLEIQSSEAGDSALYLCASSLGIYEQYFGPGTRLTVL
B7: TCRCD8-mC16#7 (TCR, V domains shown)
Valpha: GDSVTQTEGQVALSEEDFLTIHCNYSASGYPALFWYVQYPGEGPQFLFRASRDKEKGSSRGFEATYDKGTTSFHLRKASVQESDSAVYYCALGNNYAQGLTFGLGTRVSVFP
Vbeta: EAAVTQSPRSKVAVTGGKVTLSCHQTNNHDYMYWYRQDTGHGLRLIHYSYVADSTEKGDIPDGYKASRPSQENFSLILELASLSQTAVYFCASSTGNERLFFGHGTKLSVL

In one experiment the target is T1, CLDN6 (Claudin-6) peptide on HLA-A*02:01 (human).
T1 peptide: ALFGLLVYL
Put plainly: killing.
Regarding B1, the binding result was “recognises”.

For B2, the binding result is reported as “recognises”.

Turning to B3, the binding result is on record as “recognises”.

Consider B4, for which the binding result is on record as “recognises”.

For B5, the binding result is listed as “recognises”.

For the molecule B6, the binding result was “recognises”.

The target in another experiment is T2, CLDN6 (Claudin-6) peptide on HLA-A*02:01 (human).
T2 peptide: QILGVVLTL
Put plainly: cytokine release.
With B7, the binding result was “recognises”.

These data come from patent US20170015720A1 (published 2017).
